# Measurements taken from patent publication US9926354B2, “Amyloid precursor protein (APP) based Ã#-secretase inhibitor peptides, and methods of use” (UNIVERSITY OF SOUTH FLORIDA, priority 2014, dated 2018).
# Experiments:
# BACE1 [1] = target: T1, BACE1 (Homo sapiens, UniProt P56817); experiment: Binding to and cleavage by recombinant BACE1 (WB, IP); details: biotin-labeled peptide, recombinant BACE1, 4 hours
# Procedure: Biotin-labeled TAT-APPsweBBP was incubated with or without recombinant BACE1 protein and examined by western blot (A). Full length TAT-APPsweBBP and β-cleaved TAT-APPsweBBP were clearly detected. Immunoprecipitation (IP) with anti-BACE1 antibody and subsequent WB with anti-biotin antibody (B) and IP with anti-biotin antibody and then WB with anti-BACE1 antibody (C) both reveal that TAT-APPsweBBP, but not TAT peptide, binds to BACE1. To further confirm TAT-APPswcBPP can bind to BACE1, human wild-type APP expressing CHO cells were incubated with biotin-labeled TAT-APPsweBBP or biotin-labeled APPsweBBP at 20 μM for 30 minutes, and then stained with anti-BACE1 or anti-biotin antibodies (D). […] In addition, these treated cells were further analyzed by IP with anti-biotin and subsequent WB with anti-BACE1 antibodies (E), with results showing that TAT-APPsweBBP strongly and specifically binds to BACE1.
# In order to confirm that APPsweBBP containing the β-cleavage site could bind to and be consequently proteolyzed by BACE1, 10 μg of biotin-labeled TAT-APPsweBBP was incubated with or without 10 μL of recombinant BACE1 protein (1.0 U/mL) in BACE1 reaction buffer for 4 hours at 37° C. and then subjected to Western blot (WB) analysis as described previously (Rezai-Zadeh et al., 2005; Obregon et al., 2012). […]
# BACE1 [2] = target: T1, BACE1; experiment: BACE1 activity assay (FRET, cell-free); type: biochemical; design: purchased Pan Vera Co., Madison, Wis., USA; details: peptide final concentration 20 μM, 90 minutes, room temperature
# Procedure: BACE1 Activity Assay—The BACE1 inhibiting activity of APP-based BACE1 site binding peptides were determined using a fluorescence resonance energy transfer (FRET) assay (Pan Vera Co., Madison, Wis., USA), which employs a recombinant baculovirus-expressed BACE1 and a specific substrate (Rh-[…]-quencher) that is based on the APPswe mutation. This specific peptide substrate becomes highly fluorescent upon enzymatic cleavage. A mixture of 10 μL of BACE1 (1.0 U/mL in 50 mM Tris, pH7.5, 10% glycerol), 10 μL of FRET-substrate, and 10 μL of the various APP-based BACE1 site binding peptides (final concentration 20 μM) were incubated for 90 minutes in the dark at room temperature. Then, 10 μL of BACE1 stop buffer (2.5 M sodium acetate) was added to the mixture. Fluorescence was read using a fluorometer, with excitation at 545 nm and emission at 585 nm.
# As a required enzyme for the generation of neurotoxic Aβ from APP, BACE1 is well established as an important mediator of AD β-amyloid pathology. As such, it has become an important target for new disease modifying therapeutics. However, since BACE1 also has important physiological roles, abolishment of the enzyme or its activity may lead to deleterious side effects as evidenced by numerous failed clinical trials discussed previously. […] Since previous studies have established a close relationship between α-helix structure and peptide-protein (or protein-protein) interactions (Azzarito, 2013; Rao et al., 2013), several APP based peptides were synthesized that might serve as a preferable substrate for BACE1. Importantly, these peptides were free of the Aβ-containing segment and, thus, cannot be amyloidogenic. In theory, these could be used to “hijack” the BACE1 processing of endogenous APP and lead to a decrease in cerebral Aβ. These BACE1 substrates and controls were incubated with recombinant BACE1 and percent of inhibition of the enzyme was calculated. […] These findings indicate that the α-helical TAT fusion domain may help to promote selective APPsweBBP proteolysis by BACE1, yielding substrate competition against human wild-type APP.
# 5XFAD mice = experiment: β-amyloid deposits in 5XFAD mouse brains (4G8 immunohistochemistry, image analysis); type: in vivo; details: 8 weeks i.p. treatment
# From the text: Percentage of 4G8 immunoreactive areas in regions of interest (RSC, EC and H regions) was quantified by image analysis for each treatment group (B). Data are represented as mean±SD (n=10, 5 female/5 male).
# 5XFAD Mice—Transgenic AD mice [5XFAD; B6SJL-Tg(APPSwF1Lon,PSEN1*M146L*L286V) 6799Vas/Mmjax] at 2.5 months of age were obtained from the Jackson Laboratory (Bar Harbor, Me., USA) and housed and maintained in the Animal Facility of College of Medicine at University of South Florida. The mice at 3.5 months of age were treated with TAT-APPsweBBP, TAT peptide (100 nM/kg in 100 μl PBS) or PBS (100 μl) intraperitioneally (i.p.) daily for eight consecutive weeks. The mice were subjected to behavioral testing after 8 week-treatment and euthanized for immunohistochemical, ELISA and WB analysis after completing behavioral tests. All experiments involving mice were in compliance with the U.S. Department of Health and Human Services Guide for the Care and Use of Laboratory Animals and in accordance with the guidelines of the USF Institutional Animal Care and Use Committee.
# Immunohistochemistry—Fixed cell cultures and brain sections were stained with indicated antibodies and then treated with donkey anti-mouse IgG conjugated with Alexa Fluor 488 (1:200) and goat anti-rabbit IgG conjugated with Alexa Fluor 594 (1:200; Invitrogen, Carlsbad, Calif., USA). […]
# T1 sequence (P56817 46-501): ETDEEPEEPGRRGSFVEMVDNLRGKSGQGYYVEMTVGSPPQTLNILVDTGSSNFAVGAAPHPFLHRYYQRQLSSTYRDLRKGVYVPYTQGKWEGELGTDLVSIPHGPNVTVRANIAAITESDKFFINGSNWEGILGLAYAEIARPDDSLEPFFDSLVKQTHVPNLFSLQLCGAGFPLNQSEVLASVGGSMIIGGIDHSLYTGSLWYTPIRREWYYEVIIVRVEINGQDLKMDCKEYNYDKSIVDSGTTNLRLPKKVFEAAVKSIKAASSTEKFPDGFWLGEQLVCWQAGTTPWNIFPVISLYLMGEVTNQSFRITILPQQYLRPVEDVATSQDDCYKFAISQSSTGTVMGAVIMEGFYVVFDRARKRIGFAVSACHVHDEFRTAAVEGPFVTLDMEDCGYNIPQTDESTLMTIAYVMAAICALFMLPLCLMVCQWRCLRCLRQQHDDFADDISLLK
sequence,measurement,setting,value
"YGRKKRRQRRR [TAT, reference compound]",binding to BACE1 protein (IP/WB),BACE1 [1],not observed
same,% of inhibition (mean ± SD) of BACE1,BACE1 [2],3.32 ± 0.02%
same,"percentage of 4G8 immunoreactive areas (β-amyloid plaques) in RSC, EC and H regions",5XFAD mice,no significant difference
